Laboratory results published in patent US20020146711A1 (published 2002).
*: point of attachment. Biotin = O=C1N[C@H]2[C@H](CS[C@H]2CCCCC(=O)*)N1

T1: SH3 binding peptide: biotin-SGSGILAPPVPPRNTR-COOH (SMILES …)
T1 peptide: Biotin-SGSGILAPPVPPRNTR-OH

B1: MMAC1.388-403: biotin-ENEPFDEDQHTQITKV-COOH (peptide)
peptide: Biotin-ENEPFDEDQHTQITKV-OH
SMILES: CC[C@H](C)[C@H](NC(=O)[C@H](CCC(N)=O)NC(=O)[C@@H](NC(=O)[C@H](Cc1c[nH]cn1)NC(=O)[C@H](CCC(N)=O)NC(=O)[C@H](CC(=O)O)NC(=O)[C@H](CCC(=O)O)NC(=O)[C@H](CC(=O)O)NC(=O)[C@H](Cc1ccccc1)NC(=O)[C@@H]1CCCN1C(=O)[C@H](CCC(=O)O)NC(=O)[C@H](CC(N)=O)NC(=O)[C@H](CCC(=O)O)NC(=O)CCCC[C@@H]1SC[C@@H]2NC(=O)N[C@@H]21)[C@@H](C)O)C(=O)N[C@H](C(=O)N[C@@H](CCCCN)C(=O)N[C@H](C(=O)O)C(C)C)[C@@H](C)O
notes: also called MMAC1 C-terminal PDZ peptide
B2: GST fusion of MMSC2 PDZ domain 5 (P12) (other)
chain: QHIELEKGSKGLGFSILDYQDPIDPASTVIIIRSLVPGGIAEKDGRLLPGDRLMFVNDVNLENSSLEEAVEALKGAPSGTVRIGVAK
notes: GST placed N-terminal as in pGEX vectors; also called PDZ domain number 5; not shown: glutathione S-transferase (GST) encoded by pGEX vectors (Pharmacia)
B3: GST fusion of MMSC2 PDZ domain 9 (P7) (other)
chain: AVDLSSFKNVQHLELPKDQGGLGIAISEEDTLSGVIIKSLTEHGVAATDGRLKVGDQILAVDDEIVVGYPIEKFISLLKTAKMTVKLTIHA
notes: GST placed N-terminal as in pGEX vectors; also called PDZ domain number 9; not shown: glutathione S-transferase (GST) encoded by pGEX vectors (Pharmacia)
B4: GST fusion of MMSC2 PDZ domain 3 (P13) (other)
chain: FDVELTKNVQGLGITIAGYIGDKKLEPSGIFVKSITKSSAVEHDGRIQIGDQIIAVDGTNLQGFTNQQAVEVLRHTGQTVLLTLMR
notes: GST placed N-terminal as in pGEX vectors; also called PDZ domain number 3; not shown: glutathione S-transferase (GST) encoded by pGEX vectors (Pharmacia)
B5: GST fusion of MMSC2 PDZ domain 1 (P15) (other)
chain: EVFELLKPPSGGLGFSVVGLRSENRGELGIFVQEIQEGSVAHRDGRLKETDQILAINGQALDQTITHQQAISILQKAKDTVQLVIAR
notes: GST placed N-terminal as in pGEX vectors; Adsorbed to ELISA wells; also called PDZ domain number 1; not shown: glutathione S-transferase (GST) encoded by pGEX vectors (Pharmacia)
B6: GST fusion of MMSC2 PDZ domain 10 (P1) (other)
chain: TTIEISKGRTGLGLSIVGGSDTLLGAIIIHEVYEEGAACKDGRLWAGDQILEVNGIDLRKATHDEAINVLRQTPQRVRLTLYR
notes: GST placed N-terminal as in pGEX vectors; also called PDZ domain number 10; not shown: glutathione S-transferase (GST) encoded by pGEX vectors (Pharmacia)
B7: GST fusion of MMSC2 PDZ domain 13 (P4) (other)
chain: KSITLERGPDGLGFSIVGGYGSPHGDLPIYVKTVFAKGAASEDGRLKRGDQIIAVNGQSLEGVTHEEAVAILKRTKGTVTLMVLS
notes: GST placed N-terminal as in pGEX vectors; also called PDZ domain number 13; not shown: glutathione S-transferase (GST) encoded by pGEX vectors (Pharmacia)
B8: GST fusion of MMSC2 PDZ domain 2 (P14) (other)
chain: ETIELVNDGSGLGFGIIGGKATGVIVKTILPGGVADQHGRLCSGDHILKIGDTDLAGMSSEQVAQVLRQCGNRVKLMIAR
notes: GST placed N-terminal as in pGEX vectors; also called PDZ domain number 2; not shown: glutathione S-transferase (GST) encoded by pGEX vectors (Pharmacia)
B9: GST fusion of MMSC2 PDZ domain 8 (P8) (other)
chain: HMIELEKGHSGLGLSLAGNKDRSRMSVFIVGIDPNGAAGKDGRLQIADELLEINGQILYGRSHQNASSIIKCAPSKVKIIFIR
notes: GST placed N-terminal as in pGEX vectors; also called PDZ domain number 8; not shown: glutathione S-transferase (GST) encoded by pGEX vectors (Pharmacia)
B10: GST fusion of MMSC2 PDZ domain 4 (P10) (other)
chain: HVSKFSENSGLGISLEATVGHHFIRSVLPEGPVGHSGKLFSGDELLEVNGITLLGENHQDVVNILKELPIEVTMVCCR
notes: GST placed N-terminal as in pGEX vectors; also called PDZ domain number 4; not shown: glutathione S-transferase (GST) encoded by pGEX vectors (Pharmacia)
B11: GST fusion of MMSC2 PDZ domain 12 (P3) (other)
chain: RTVEMKKGPTDSLGISIAGGVGSPLGDVPIFIAMMHPTGVAAQTQKLRVGDRIVTICGTSTEGMTHTQAVNLLKNASGSIEMQVVA
notes: GST placed N-terminal as in pGEX vectors; also called PDZ domain number 12; not shown: glutathione S-transferase (GST) encoded by pGEX vectors (Pharmacia)
B12: GST fusion of MMSC2 PDZ domain 11 (P2) (other)
chain: LTIELQKKPGKGLGLSIVGKRNDTGVFVSDIVKGGIADADGRLMQGDQILMVNGEDVRNATQEAVAALLKCSLGTVTLEVGR
notes: GST placed N-terminal as in pGEX vectors; also called PDZ domain number 11; not shown: glutathione S-transferase (GST) encoded by pGEX vectors (Pharmacia)
B13: GST fusion of MMSC2 PDZ domain 6 (P11) (other)
chain: RTINIAKGNSSLGMTVSANKDGLGMIVRSIIHGGAISRDGRIAIGDCILSINEESTISVTNAQARAMLRRHSLIGPDIKITYVP
notes: GST placed N-terminal as in pGEX vectors; also called PDZ domain number 6; not shown: glutathione S-transferase (GST) encoded by pGEX vectors (Pharmacia)
B14: GST fusion of MMSC2 PDZ domain 7 (P9) (other)
chain: RRVELWREPSKSLGISIVGGRGMGSRLSNGEVMRGIFIKHVLEDSPAGKNGTLKPGDRIVEVDGMDLRDASHEQAVEAIRKAGNPVVFMVQS
notes: GST placed N-terminal as in pGEX vectors; also called PDZ domain number 7; not shown: glutathione S-transferase (GST) encoded by pGEX vectors (Pharmacia)

Target: B6
Test: summary of the PDZ binding assay

| binding result | Binder |
| --- | --- |
| binds | B1 |

Target: B7
Test: summary of the PDZ binding assay

| binding result | Binder |
| --- | --- |
| binds | B1 |

Target: B14
Test: summary of the PDZ binding assay

| binding result | Binder |
| --- | --- |
| binds | B1 |

Target: B1
Test: ELISA, GST-PDZ domain on plate, biotin-peptide/streptavidin-alkaline phosphatase complex in solution
Source text: (§1) cDNAs encoding each of the MMSC2 PDZ domains (amino acid residues identified in Table 1), and any desired control proteins, were generated by PCR and subcloned as glutathione S-transferase (GST) fusions in pGEX vectors (Pharmacia). After sequencing to confirm expression construct integrity, the resulting clones were expressed in E. coli and the desired fusion proteins isolated with glutathione-agarose and recovered with glutathione elution. These fusion proteins or control proteins were then adsorbed to different wells of a 96-well ELISA plate and remaining sites blocked with BSA. Synthetic commercially synthesized peptides encoding the desired PDZ-binding domain (i.e., the 16 C-terminal amino acids of MMAC1, or the C-terminal peptide sequences of interacting proteins identified by the approach of Example 2, or the C-terminal peptide sequences identified by the approach of Example 3), or a control peptide, and biotinylated at the amino-terminus, were pre-bound to streptavidin-alkaline phosphatase in a 4:1 molar ratio. The biotinylated peptide streptavidin-alkaline phosphatase complexes were then blocked with free biotin. These pre-bound peptide streptavidin-alkaline phosphatase complexes were then incubated with the immobilized PDZ domains in wash buffer containing PBS, BSA and triton-X100. Unbound material was removed with repeated washes. Bound peptide/streptavidin-alkaline phosphatase complex was then quantitated by a colorimetric phosphatase assay read on a 96-well plate reader. The following peptides were used in the initial study:
(§2) The relative affinity of each of the 13 PDZ domains encoded by MMSC2 for an MMAC1 C-terminal PDZ peptide as measured by an ELISA assay is set forth in Table 2.

| A405 [A405] | Binder |
| --- | --- |
| 0 | B2 |
| 0.017 | B3 |
| 0.006 | B4 |
| 0.011 | B5 |
| 0.174 | B6 |
| 0.456 | B7 |
| 0.001 | B8 |
| 0.006 | B9 |
| 0.024 | B10 |
| 0.003 | B11 |
| 0.012 | B12 |
| 0.016 | B13 |
| 0.667 | B14 |

Target: T1, SH3 binding peptide: …
Test: as above
Source text: as §1, §2

| A405 [A405] | Binder |
| --- | --- |
| 0.005 | B2 |
| 0.009 | B3 |
| 0.008 | B4 |
| 0.007 | B5 |
| 0.002 | B6 |
| 0.006 | B7 |
| 0.006 | B8 |
| 0.008 | B9 |
| 0.01 | B10 |
| 0.011 | B11 |
| 0.009 | B12 |
| 0.017 | B13 |
| 0.006 | B14 |
